According to patent US8492099B2, “Method of measuring enzymatic activity of adsorbed allergenic enzyme” (Alk-Abello A/S, priority 2005, dated 2013):

Tests used:
[1] = Adsorption of papain to aluminium hydroxide: active enzyme by active site titration with E-64; format: biochemical
Experimental: (§1) After adsorption 500 μL was taken out for further analysis and the rest of the mixture was centrifuged for 10 min at 400 rpm. The rest of the samples analysed follow the flow scheme in FIG. 12. Furthermore a control (Con) containing papain in Bis-Tris buffer in the absence of aluminium hydroxide was prepared.
The active site titration was used to estimate the amount of active enzyme in the different samples. This is in contrast to the protein concentration estimated from A280 which represents the total protein content of the sample.

[2] = Papain activity over time in the absence of aluminium hydroxide; format: physicochemical; conditions: 10 μg/mL papain in 50 mM Bis-Tris, 4° C.
Experimental: Papain was mixed with 50 mM Bis-Tris buffer to a final concentration of 10 μg/mL in a total volume of 500 μL. The mixture was incubated at 4° C. and samples were taken out at 0, 30 and 60 min. The samples were diluted and incubated for 10 min in buffer containing DTT and subsequently activity was measured after addition of substrate. […] Additional loss occurs until the initiation of the enzymatic assay.

[3] = Papain enzyme activity fluorescence assay (activity measurements and Michaelis-Menten kinetic), papain/aluminium hydroxide adsorption experiment; format: biochemical
Experimental: After measuring the enzymatic activity the maximal slope of the progress curve was estimated using the software SoftMax® PRO Life Sciences Edition, Molecular Devices, 2001. After estimating the initial velocity of the experiments they were transferred to Prism and analyzed.
as §1
Two types of enzymatic assays were performed: (i) activity measurements using a fixed substrate concentration to evaluate enzyme activity and (ii) Michaelis-Menten kinetic to estimate the kinetic parameters Vmax and KM.
All activity assays were conducted with BisTris buffer, pH 6.5, 5 mM DTT/, mM EDTA and Z-FR-AMC as substrate.

[4] = Adsorption of papain to aluminium hydroxide: protein concentration by A280; format: physicochemical; conditions: 100 μg/mL papain, 1.14 mg/mL aluminium hydroxide, 1 h at 4° C.; ANOVA p-value=0.615
Description: The aromatic amino acids tryptophan, tyrosine and phenylalanine absorb ultraviolet light. However only tryptophan and tyrosine absorb at 280 nm and tryptophan absorbs 5 times more light than tyrosine. This is due to the […] transition in the indole ring of tryptophan where phenylalanine and tyrosine contains a phenyl group. The absorbance of a protein is linearly correlated with the amount of tryptophan and tyrosine in the protein, the length of the light path and the concentration of protein. This relationship is named Lambert-Beer's law and is given by: A=ε·l·c where A is the absorbance, ε is the molar absorption coefficient for the protein (determined by the amount of tryptophan and tyrosine in the protein) l is the length of the light path and c is the protein concentration. Thus from an absorbance measurement the concentration of protein can be estimated if the molar absorptivity coefficient is known. • Apparatuses • Lambda 800 UV/VIS Spectrometer, PerkinElmer™ • 100-QS, quartz cuvette, path length 1 cm, Hellma® • Materials and Reagents • 50 mM Bis-Tris pH 6.5, Sigma • 50 mM Tris pH 7.0, Sigma • 50 mM phosphate buffer pH 7.0, Merck • 2% Helmanex solution, Hellma Experimental Procedure
The spectrophotometer was turned on 30 min prior to use for a warm up period. […] After cleaning the cuvette 20 μL of sample was transferred to the cuvette and the absorbance was measured. […]

[5] = Adsorbed: papain adsorbed to aluminium hydroxide (mix 2)
[6] = Control: papain in the absence of aluminium hydroxide
[7] = activity measurements, 30 μM Z-FR-AMC

B1: papain: cysteine protease Car p 1 from the plant Carica papaya, purified, Sigma; chosen as negative control (protein, UniProt P00784 134-345, looked up)
Papain: IPEYVDWRQKGAVTPVKNQGSCGSCWAFSAVVTIEGIIKIRTGNLNEYSEQELLDCDRRSYGCNGGYPWSALQLVAQYGIHYRNTYPYEGVQRYCRSREKGPYAAKTDGVRQVQPYNEGALLYSIANQPVSVVLEAAGKDFQLYRGGIFVGPCGNKVDHAVAAVGYGPNYILIKNSWGTGWGENGYIRIKRGTGNSYGVCGLYTSSFYPVKN
Active papain adsorbed to aluminium hydroxide (Mix3) [1]: approximately 7%
Active papain in solution (Sup1+Sup2) [1]: 91%
Activity at 60 min lower than at 0 and 30 min (loss of activity) [2]: 7%
Vmax in Mix3 relative to Mix1 [3]: 7%
Vmax in solution (Sup1+Sup2) relative to Mix1 [3]: 97%
Km [3, 5]: 21 µM
Vmax [3, 5]: 44.1 ng/mL · s
kcat (Vmax/protein concentration, A280) [3, 5]: 14.58 s⁻¹
kcat (Vmax/protein concentration, active site titration) [3, 5]: 12.18 s⁻¹
Vmax [3, 6]: 373.9 ng/mL · s
kcat (Vmax/protein concentration, A280) [3, 6]: 5.13 s⁻¹
kcat (Vmax/protein concentration, active site titration) [3, 6]: 11.41 s⁻¹
Km ([3]; Control: papain in the absence of aluminium hydroxide, Z-FR-AMC, pH 6.5): 22 µM
Activity in Mix1 found in solution (Sup1+Sup2) [3, 7]: 96%
Activity of papain adsorbed to aluminium hydroxide (Mix3) [3, 7]: 8%
Difference between KM estimates of samples in presence and absence of aluminium hydroxide ([3]; one-way ANOVA p-value=0.999): no significant difference
Part of the enzyme not bound to the adjuvant ([3]; papain with aluminium hydroxide): 93%
Activity of the control lower than the activity of Mix1 ([3]; papain without vs with aluminium hydroxide): 17%
Adsorption of papain to aluminium hydroxide (A280, Con vs Sup1) [4]: does not adsorb significantly
